In the nanobody polyreactivity screen of Harvey et al. (2022):

Experiment: yeast display, Sf9 membrane polyspecificity reagent, FACS + sequencing; frameworks hold sequencing errors
Summary of the method: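 A nanobody's polyreactivity label depends on the gate it was sorted from. Yeast display cells were stained with 10% biotinylated, detergent-solubilized Sf9 membrane reagent for 1 hour at 4 °C, enriched on streptavidin microbeads and sorted by FACS. The low and high (top ~1%) gates were set on anti-HA fluorescence for expression and streptavidin fluorescence for reagent binding.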

Row | Sequence | polyreactivity (PSR sort gate)
1 | QVQLVESGGGLVQAGGSLRLSCAASGSILWQYAMGWSRQAPGKERELVAAITYSGASTHYADSVKGRFTISRDNAKNTVYLQMNRLKPEDTAVYYCAAGYWYRYAALRYDHWGQGTQVTVSS | low polyreactivity
2 | QVQLVESGGGLVQAGGSLRLSCAASGRIFGPNAMGWYRQAPGKERELVAAISWSGSSTRYADSVKGRFTISRDNAKNTVYLQMNSLKPEDTAVYYCAARRQSPDRYTKYEYWGQGTQVTVSS | low polyreactivity
3 | QVQLVESGGGLVQAGGSLRISCAASGLTILFYAMAWYRQAPGKERELVASIRWSDGRTYYADSVKGRFTISRDNAKNTVYLQMNSLKPEDTAVYYCAARSYLTPEYYYWGQGTQVTVSS | high polyreactivity
4 | QVQLVESVGGLVQAGGSLRLSFAASGRTFVWYVMGWYSQAPVKERELVAAISLRGGTTYYADSVKGRFTISRDNAKNTVYLQMNSLKPEDTAVYYCAIAGIRHVTSKFKGYHFGYWGQGTQVTVSS | low polyreactivity
5 | QVQLVESGGGLVQAGGSLRLSCAASGFIFDRNAMGWYRQAPGKEREFVAAITRRGGTTYYADSVKGRFTISRDNAKNTVYLQMNSLKPEDTAVYYCAATYLHVYRRRFYYWGQGTQVTVSS | high polyreactivity
6 | QVQLVESGGGLVQAGGSLRLSCAASGRIFGSYAMGWYRQAPGKEREFVAAISVGSGSTYYADSVKGRFTISRDNAKNTVYLQMNSLKPEDTAVYYCAAENLYIDPRDWYGTWDTGYYWGQGTQVTVSS | high polyreactivity
7 | QVQLVESGGRLVQAGRSLRLSCAASGRTFGRYAMGWYRQAPGKERELVAAITRGGGSTYYADSVKGRFTISRDNAKYTVSLQMNSLKPEDTAVYYCAARNFRSPYGYDYWGQGTQVTVSS | high polyreactivity
8 | QVQLVESGGGLVQAGGSLRLSCAASGSIFSYYAMAWYRQAPGKERELVAAITWSGTRTYYADSVKGRFTISRDNAKNTVYLQMNSLKPEDTAVYYCAADSSIRDDYWGQGTQVTVSS | low polyreactivity
9 | QVQLVESGGGLVQAGGSLRLSCAASGSIIAINAMGWYRQAPGKERDLVAAISWNTGTTYYADSVKGRFTISRDNAKNTVYLQMNSLKPEDTAVYYCAADLWRWESLYKIWLPQYDYWGQGTQVTVSS | high polyreactivity
10 | QVQLVESGGGLVKAGGSLRLSCGASGSIFDFYVMGWYRQAPGKERELVGAISSGGSTYYADSVKGRFTISRDNAKHTVYVQMNSLKPADTAVYYCAAYPEYVSGAWYDYWGQGTQVTVSS | low polyreactivity
11 | QVQLVESGGGLVQAGGSLRLSCAASGRISARYVMGWYRQAPGKERELVAAISWSGDRTYYADSVKGRFTISRDNAKNTVYLQMNSLKPEDTAVYYCANGFYSRLAYGYGYWGQGTQVTVSS | high polyreactivity
12 | QVQLVESGGGLVQAGGSLRLSCAASGSISWYYAMGWYRQAPGKERELVAAISDSGGDTYYADSVKGRFTISRDNAKNTVYLQMNSLKPEDTAVYYCAAQYRGSYRTTYDYWGQGTQVTVSS | low polyreactivity
13 | QVQLVESGGGLVQAGGSLRLSCAASGRTFWYYTMGWYRQAPGKERELVASITYRGGSTYYADSVKGRFTISRDNAKNTVYLQMNSLKPEDTAVYYCNARSGNRYGPRYDYWGQGTQVTVSS | high polyreactivity
14 | QVQLVESGGGLVQAGGSLRLSCAASGRTFRKNAMGWSRQAPGKDRELVAAISASGTSTYYADSVKGRFTISRDNAKNTVYLQLNSLKPEDTAVYYSAARSYGIYDYWGQGTQVTVSS | high polyreactivity
15 | QDQHVESGGGLVQAGGSLRLSCAASGLTFTLYAMGWYRKAPGKERELVAAITRSGGSTSYADSVKGRFTISRDYAKNTVYLQMNSLKPEDTAVYYCNADSPGYTAVRLVEFDYWGQGTQVTVSS | low polyreactivity
16 | QVQHVESGGGLVQAGGSLRLSCAASGSIFSHYAMGWYRQEPGKERELVATITWRGGSNTNYADSVKGRFTISRDNAKNTVYLQMNSLKPEDTAVYYCNAAFPYHYRFDYWGQGTQVTVSS | low polyreactivity
17 | QVQLVESRGGLVQAGGSLRLSFGASGRTFRWYAMVWYRQAPGKERELVAAITYSVGSTYYADSVKGRFTISRDNAKNTVYLQMNSLKPEDSAVYSCAADSYPYRYRGKYSRLDYWGQGTQVTVSS | low polyreactivity
